The values below come from the nanobody polyreactivity screen of Harvey et al. (2022).

The series can be described thus: yeast display, Sf9 membrane polyspecificity reagent, FACS + sequencing; frameworks hold sequencing errors. The essentials: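 Using colony PCR, genes from sorted yeast display clones were amplified, then sequenced on MiSeq at 2 × 250 and filtered by CDR length. The clones had been stained with 10% biotinylated, detergent-solubilized Sf9 membrane reagent for 1 hour at 4 °C and sorted by FACS into low and high (top ~1%) gates on anti-HA and streptavidin fluorescence. Polyreactivity labels come from the gate of origin.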
For the sequence “QVQLVESGGGLVQAGGSLRLICAASGFIFITNAMGWSRQAPGKERELVAAITSSDGNTYYADSVKGRFTISRDNAKNTVYLQMNSLKPEDTAVYYCADDARTKSYVRLYDYWGQGTQVTVSS”, the “polyreactivity (PSR sort gate)” value was “low polyreactivity”.

For “QVQLVESGGGLVQAGGSLRLICAASGFIFSFNAMGWYRQAPGKERELVAAIRRSAGSTYYADSVKGRFTISRDNAKNTVYLQMNSLKPEDTAVYYCATVTRLYRHGYWGQGTQVTVSS”, the “polyreactivity (PSR sort gate)” value is “high polyreactivity”.

Consider “QVQLVESGGGLVQAGGSLRLICAASGFIFSSYAMVWYRQAPGKERDLVAAISQTVGGTYYADSVKGRFTISRDNAKNTVYLQMNSLKPEDTAVYYCAADVYTASDRYWHDYWGQGTQVTVSS”, for which the “polyreactivity (PSR sort gate)” value is reported as “low polyreactivity”.

On to “QVQLVESGGGLVQAGGSLRLICAASGFIFTLYAMGWYRQAPGTERELVAAISKTGGRTYYADSVKGRFTISRDNAKNTVYLQMNSLKPEDTAVYYCAKDVPSTYAAAYDYWGQGTQVTVSS”, for which the “polyreactivity (PSR sort gate)” value is “high polyreactivity”.

Turning to “QVQLVESGGGLVQAGGSLRLICAASGFIIYIYAMGWYRQAPGKERELVAAISRSGVGTYYADSVKGRFTISRDNAKNTVYLQMNSLKPEDTAVYYCARSRSGYRYDYWGQGTQVTVSS”, the “polyreactivity (PSR sort gate)” value was “high polyreactivity”.

Regarding “QVQLVESGGGLVQAGGSLRLICAASGFISVRNAMGWYRQGPGKERELGAAISSGDTTDYADSVKGSFTISRDNAKNTVYLQMNSLKPEDTAVYYCAAVYYGRYYYWGQGTQVTVSS”, the “polyreactivity (PSR sort gate)” value was “low polyreactivity”.

As to “QVQLVESGGGLVQAGGSLRLICAASGFTFASNAMGWYRQATGKERELVAAITTSGGSTYYADSVKGRFTISRDNAKNTVYLQMNSLKPEDTSVYYCADRATSRRPYSYGSWGQGTQVTVSS”, the “polyreactivity (PSR sort gate)” value is recorded as “high polyreactivity”.

As for “QVQLVESGGGLVQAGGSLRLICAASGFTFGEYAMGWYRQAPGKERDFVASISWDGASTYYADSVKGRFTISRDNAKNTVYLQMKSLKPEDTAVYYCAATRYYSFWGQGTQVTVSS”, the “polyreactivity (PSR sort gate)” value was “low polyreactivity”.

“QVQLVESGGGLVQAGGSLRLICAASGFTFGYYAMGWYRQAPRKERELVAAISYTGGSTYYADSVKGRFTISRDNAMNTVYLQMNSLKPEDTAVYYCNAYSALYGSYNYWGQGTQVTVSS”: the “polyreactivity (PSR sort gate)” value was “high polyreactivity”.

On to “QVQLVESGGGLVQAGGSLRLICAASGFTFSYYAMGWYRQAPGKESELVAGITTGGGTNYADSVKGRFTISRDNAKNTVYLQMNCLKPEDTAVYYCNAVGSHWVSYSSPVRFDFWGQGTQVTVSS”, for which the “polyreactivity (PSR sort gate)” value is “low polyreactivity”.

With “QVQLVESGGGLVQAGGSLRLICAASGFTFYKNTMGWYRQAPGKERELVAAISSSGSSTYYADSVKGRFTISRDNAKNTVYLQMNSLKPEDTAVYYCAAGRFAYHDDYWGQGTQVTVSS”, the “polyreactivity (PSR sort gate)” value is reported as “high polyreactivity”.

As for “QVQLVESGGGLVQAGGSLRLICAASGGIFWYNAMGWYRPAPGKERELVADISSSGITYYADSVKGRFTISRDNAKNTVYLQMNSLKPEDTAVYYCAADSTTRPGLRVYDDYDYWGQGTQLTVSS”, the “polyreactivity (PSR sort gate)” value was “low polyreactivity”.

For the sequence “QVQLVESGGGLVQAGGSLRLICAASGGIFYSNARGWYRQAPGKERDFVAAITRSGTSTYYADSVKGRITISRDNAKNTVYLQMNSLKPVDTAVYYCAADYRYRRYRGHVSKLYYWGQGTQVTVSS”, the “polyreactivity (PSR sort gate)” value is reported as “low polyreactivity”.

“QVQLVESGGGLVQAGGSLRLICAASGIIFGIYDMGWYRQAPGKERELVAAIRRSGGSTYYADSVKGRFTISRDNAKNTVYLQMNSLKPEDTAVYYCATDAWYYSQTNHDYWGQGTQVTVSS”: the “polyreactivity (PSR sort gate)” value was “low polyreactivity”.

With “QVQLVESGGGLVQAGGSLRLICAASGIIFQAYTMGWSRQAPGKERELVAAISYSGGSTYYADSVKGRFTISSDNAKNSVYLEMKSLKPEDTAVYYCARRSRYLWRYDYWGQGTQVTVSA”, the “polyreactivity (PSR sort gate)” value is recorded as “high polyreactivity”.

For the sequence “QVQLVESGGGLVQAGGSLRLICAASGIIFYYAMGWYRQAPGKEREFVASIRWSGDSTYYADSVKGRFTISRDNAKNTVYLQMNSLKPEDTAVYYCAAEPDSAVSYVSWRDYWGQGTQVTVSS”, the “polyreactivity (PSR sort gate)” value is given as “low polyreactivity”.

As to “QVQLVESGGGLVQAGGSLRLICAASGIILYSYAMGWYRQAPGKERELVAAISRRGTSTFYADSVKGRFTISRDNAKNTVYLQMNSLKPEDTAVYYCAADFYTNHYDYWGQGTQVTVSS”, the “polyreactivity (PSR sort gate)” value was “high polyreactivity”.

Take “QVQLVESGGGLVQAGGSLRLICAASGITFEVYAMGRYRLAPGKEMELVAVITSVGSTNYADSVKGRFTISRDNAKNTVYLQMNSLKPEDPAVYYCAALKWTVRRFNPYTYYRYDYWGQGTQVTVSS”: the “polyreactivity (PSR sort gate)” value is listed as “low polyreactivity”.

Regarding “QVQLVESGGGLVQAGGSLRLICAASGITFPSNTMGWYRQAPGKERELVAAITRGDNTYYADSVKGRFTISRDNAKNTVYLQMNSLKPEYTAVYYCATEGYQIQYEHDYWGQGTIVTVSS”, the “polyreactivity (PSR sort gate)” value was “low polyreactivity”.

“QVQLVESGGGLVQAGGSLRLICAASGITFSAYAMGWYRQAPGKERELVAAITRSGGITYYADSVKGRFTISRDNAKNSVYLQMNSLKPEDTAVYYCNKPYASPYYDSWGQGTQVTVSS”: the “polyreactivity (PSR sort gate)” value is on record as “high polyreactivity”.

Take “QVQLVESGGGLVQAGGSLRLICAASGITFTGYAMGWYTQAPGKERELVAVISETGGSTYADSVKGRFTISRDNAKNTVYLQMNSLKPEDTAVYYCAARLWWPYSTAWAKMDYWGQGTQVTVSS”: the “polyreactivity (PSR sort gate)” value was “low polyreactivity”.

As to “QVQLVESGGGLVQAGGSLRLICAASGITFVEYSMGWYRQAPGKERDLVAAISWSGVRTRYADSVKGRFTISRDNAKNTVYLQMNSLKPEDTAVYYCYTVPRGGGGVRILDYWGQGTQVTESS”, the “polyreactivity (PSR sort gate)” value is recorded as “high polyreactivity”.

On to “QVQLVESGGGLVQAGGSLRLICAASGITFVYYAMGWYRQAPGKERELVAAISTSGDSTYYADSVKGRFTISRDNAKNTVYLPMNSLKPEDTAVYYCAADADYYQYGWRVYYWGQGTQVTVSS”, for which the “polyreactivity (PSR sort gate)” value was “low polyreactivity”.

In the case of “QVQLVESGGGLVQAGGSLRLICAASGITFYAYPMGWYRQAPGKERELVAAITSSGSSTYYADSVKGRFTISLDNAKNTVYFQMNSLKPEDTAVFYCAATRGTKFYWGQGTQVTVSS”, the “polyreactivity (PSR sort gate)” value is “high polyreactivity”.

Regarding “QVQLVESGGGLVQAGGSLRLICAASGITTRTYAMGWYRQAPGKDRELVAAISDSGDRTYYADSVKGRFTISRDNAKNTVYLQMNRLKPEDTAVYYCAVDAPGPRCEFWGQGTKVTVSS”, the “polyreactivity (PSR sort gate)” value is “low polyreactivity”.

Regarding “QVQLVESGGGLVQAGGSLRLICAASGLIFGRYDMGWYRQAPGKERELVAAISGGTTNYADSVKGRFTISRDNAKNTVYLEMNSLKPEDTAVYYCNAGPSQPGGIFYEYDYWGQGTQVTVSS”, the “polyreactivity (PSR sort gate)” value is listed as “low polyreactivity”.

With “QVQLVESGGGLVQAGGSLRLICAASGLIFKFYAMGWYRQAPGKERELVASIRGSGDNTYYADSVKGRFTISRDNAKNTVYLQMNSLKPEDTAVYYCAADWLYDYGEYYYWGQGTQVTVSS”, the “polyreactivity (PSR sort gate)” value is on record as “high polyreactivity”.

With “QVQLVESGGGLVQAGGSLRLICAASGLIFRGYAKGWYRQAPGKERELVAAISKSGGSTYYADSVKGRFTISRDNAKNTVYLQMNSLKPEDTAVYYCNTDYVWKYFLSSQYDYWGQGTQVTVSS”, the “polyreactivity (PSR sort gate)” value is “high polyreactivity”.

As to “QVQLVESGGGLVQAGGSLRLICAASGLTFVYYTKRSYTQAPGKEREFVAGINSGGSTYYADSVKGRFTISRDNAKNTVYVQMNSLKPVDTAVYYCAAVERGYRRFRRIYDYWGQGTQVTVSS”, the “polyreactivity (PSR sort gate)” value was “high polyreactivity”.

With “QVQLVESGGGLVQAGGSLRLICAASGLTFWYYAMGWYRQAPGKERELVARITRSGVGTYYADSVKGRFTISRDNAKHTVYLQMNSLKPEDTAVYYCNARYQYSWVRYGYDYWGQGTQVTVSS”, the “polyreactivity (PSR sort gate)” value is on record as “high polyreactivity”.
